Experimental data reported in patent publication US20160024208A1.
Numbering of substitutions follows the chain as printed.

B1: H4H441B (antibody, V domains shown)
VH: QVQLQQWGAGLLKPSETLSLTCAVYGGSFSGHYWTWIRQPPGKGLEWIGEINHRGNTNYNPSLKSRATISVDTSKNQFSLKLSSVTAADTAVYYCAREGSLAARLWFFDLWGRDTPVTVSS
VL: DIQMTQSPSSLSASVGDRGTVTCRASQNIRTYLNWYQQKPGKAPKLLIYAASSLQSGVPSRFSGSGSGTDFTLTISSLQPEDFATYYCQQSYGTPYTFGQGTKVEIKR
B2: H4H448B (antibody, V domains shown)
VH: EVQLVQSGGGLVQPGRSLRLSCAASGFTFDDYAMHWVRQAPGKGLEWVSGISWNSGSIGYADSVKGRFTISRDNAKNSLYLQMNSLRAEDTALYYCAKDIEYYDILTGYYSYYIMDVWGQGTTVTVSS
VL: B1 VL with Q3R, V21I, R30N, T31S, Q38L, Y49F, G93S, T94S, Y96F
B3: H4H382B (antibody, V domains shown)
VH: EVQLVQSGGGVVQPGRSLRLSCEASGFTFSSYGMHWVRQAPGKGLEWVAVISYDGSNKHYTDSVKGRFTISRDNSKNTLYLQMNSLRAEDTAVYFCAQSRGYSYGLGYWGQGTLVTVSS
VL: DIQMTQSPDSLAVSLGERATINCKSSQSVLSSSNNENYLVWYQQKPGQPPKLLIYWASTREPGVPDRFSGGGSGTDFTLTISSLQAEDVAVYYCQQYHSIPYTFGQGTKVEIKR
B4: H4H471B (antibody, V domains shown)
VH: EVQLVESGGGLVKPGGSLRLSCAASGVTFSDYYMTWIRQAPGKGLEWVSYISTDGRTIYYADSVKGRFTISRDNAKNSLYLQMNNLRAEDTAVYYCARGVDSDDYEDFYSYYDMDVWGQGTTVTVSS
VL: DIQMTQSPSSLSASVGDRVTITCRASQGISNYLAWFQQKPGKAPKSLIYAASSLQGGVPSRFSGSGSGTDFTLTISSLQPEDFATYYCQQYNSYPLTFGGGTKVEIKR
B5: H4H443B (antibody, V domains shown)
VH: B2 VH with E1Q, Q6E, A40V, S52N, Y80F
VL: DIQMTQSPSFLSASVGDRVTITCWASQGISSYLAWYQQKPGKAPKLLIYASSTLQSGVPSRFSGSGSGTEFTLTISSLQPEDFATYYCQQFNSYPPTFGQGTKVEIKR

What was measured:
[1] = molecular target: full-length human Nav1.7 fused at its N-terminus to GFP, expressed in HEK293 cells (human) (UniProt Q15858); test: cell-based or functional assay
[2] = molecular target: full-length human Nav1.7 fused at its N-terminus to GFP, expressed in HEK293 cells (human) (UniProt Q15858); test: flow cytometry on Nav1.7-GFP-HEK293, antibody 3.3 nM
[3] = molecular target: full-length human Nav1.7 fused at its N-terminus to GFP, expressed in HEK293 cells (human) (UniProt Q15858); test: flow cytometry; % stained hNav1.7-GFP-HEK293 minus parental HEK293
[4] = molecular target: full-length human Nav1.7 fused at its N-terminus to GFP, expressed in HEK293 cells (human) (UniProt Q15858); test: flow cytometry on Nav1.7-GFP-HEK293, antibody 3.3 nM preincubated with 3.3 uM EC 3-1 peptide as competitor
[5] = molecular target: N-term Biotin Nav1.7 (3-3) peptide, mouse (mouse); test: ELISA on coated peptide

Binder | Current blocking (Average % inhibition), IonWorks Quattro, 223 nM antibody [1] [%] | % Binding Nav1.7 (Stable Line) [2] [%] | % Binding Nav1.7 [3] [%] | % Binding Nav1.7 + 1000x Peptide (Competition Binding) [4] [%] | OD450 [5] [od]
B1 | 81 | – | – | – | –
B2 | – | 9.2 | 9.2 | 5.8 | –
B3 | -6 | – | 13 | – | –
B4 | – | – | – | – | < 0.2
B5 | – | 10.1 | 10.1 | 5.1 | –
